The target in test [1] is Purified Mor1 (Example 9) (Mus musculus (Mouse)) (UniProt P42866). The test is described as follows: cell-based or functional assay.
Test [2] shares this target. Kind of test: method not told at that place (Ki; presumably radioligand displacement). A general note: In a radioligand displacement assay an active substance lowers the binding of a labelled ligand.

Chain of Purified Mor1 (Example 9) (Mus musculus (Mouse)) (P42866 52-358, tags or fused parts left off): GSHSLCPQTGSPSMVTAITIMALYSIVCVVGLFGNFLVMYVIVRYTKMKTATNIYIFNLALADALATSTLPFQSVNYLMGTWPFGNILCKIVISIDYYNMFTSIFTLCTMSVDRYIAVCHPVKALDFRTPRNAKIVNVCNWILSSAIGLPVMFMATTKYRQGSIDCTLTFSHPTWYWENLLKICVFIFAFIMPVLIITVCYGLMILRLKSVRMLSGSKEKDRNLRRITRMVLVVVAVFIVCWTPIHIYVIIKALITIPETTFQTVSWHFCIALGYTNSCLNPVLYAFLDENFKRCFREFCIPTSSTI

B1: XA8639 (VHH)
VHH: QVQLVESGGGLVRPGGSLRLSCVDSERTSYPMGWFRRAPGKEREFVASITWSGIDPTYADSVADRFTTSRDVANNTLYLQMNSLKHEDTAVYYCAARAPVGQSSSPYDYDYWGQGTQVTVSS
Regarding B1, in test [1], the enhancement of BU72 affinity for Mor1 in HDL particles was determined as 176 fold and the inhibition constant (Ki) of agonist BU72 in [3H]-diprenorphine competition on Mor1 in HDL particles, in presence of 5 µM XA8639 turned out to be 8.5 pM.

B2: XA8635 (VHH)
VHH: QVQLVESGGGLVQAGGSLRLSCAASGSISSISTMGWYRQAPGNERELVAAITSGGSTNYADSVKGRFTISRDNAKNTVYLQMNSLKPEDTAVYYCNFKYYSGSYFYKSEYDYWGQGTQVTVSS
B2: the Ki – broadly, the dissociation constant of the complex between target and ligand, obtained from inhibition or displacement – in test [2] was 12 nM. This lies in the double-digit nanomolar range.
